Laboratory results from patent publication US20100099609A1.

Columns and labels:
[1] = target: Aβ1-17, the 17 first amino acids of Aβ (UniProt P05067); assay: concentration-dependent binding of recombinant netrin-1 to the peptide; format not stated
Aβ1-40 = Aβ1-40 (UniProt P05067); assay: concentration-dependent binding of recombinant netrin-1 to the Aβ peptide; format not stated

Kd [1]: 30 nM | Kd (Aβ1-40): 22 nM
Substance: recombinant netrin-1 (species not stated) (ligand)
